In this assay the target is T1, His-tagged, full-length PCSK9 (human, UniProt A8T644 31-152; Q8NBP7 153-692).
T1 construct: Target protein of the PCSK9/EGF(A) TR-FRET assay (10 nM); also called His-PCSK9; proprotein convertase subtilisin/kexin type 9
Kind of assay: TR-FRET competition; competitor EGF(A)-Fc on His-PCSK9. Background: Time-resolved FRET reads energy transfer from a long-lived donor to a nearby acceptor.

Bridge positions count the residues as written; N and C are the ends. Square brackets hold non-standard residues; d marks the D form.

T1 sequence (A8T644 31-152 limits assumed, chain 1 of 2): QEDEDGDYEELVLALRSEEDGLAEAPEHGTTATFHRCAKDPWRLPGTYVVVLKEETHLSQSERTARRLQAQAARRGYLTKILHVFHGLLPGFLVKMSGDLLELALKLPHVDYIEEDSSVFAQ
T1 sequence (A8T644 other isoform, or with tags, fused parts or gaps limits assumed, chain 2 of 2): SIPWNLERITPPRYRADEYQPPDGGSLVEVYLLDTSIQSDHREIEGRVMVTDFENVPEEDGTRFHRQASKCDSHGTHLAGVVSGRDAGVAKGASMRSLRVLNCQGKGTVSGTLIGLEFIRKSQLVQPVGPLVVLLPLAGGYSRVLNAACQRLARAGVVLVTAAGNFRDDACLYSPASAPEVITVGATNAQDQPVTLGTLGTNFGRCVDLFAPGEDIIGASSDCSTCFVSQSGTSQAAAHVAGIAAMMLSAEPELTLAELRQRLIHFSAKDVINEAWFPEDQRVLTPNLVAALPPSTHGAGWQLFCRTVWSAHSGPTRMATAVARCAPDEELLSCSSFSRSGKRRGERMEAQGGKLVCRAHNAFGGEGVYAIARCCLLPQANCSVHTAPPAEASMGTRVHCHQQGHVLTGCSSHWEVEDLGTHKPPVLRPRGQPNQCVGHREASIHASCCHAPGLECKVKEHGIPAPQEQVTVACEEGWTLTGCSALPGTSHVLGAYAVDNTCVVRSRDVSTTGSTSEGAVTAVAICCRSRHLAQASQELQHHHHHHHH

B1: Compound 100 (peptide)
peptide: Ac-CRLPWNLQRIG[dL]PC-NH2
modifications: disulfide 1-14
SMILES: CC[C@H](C)[C@@H]1NC(=O)[C@H](CCCNC(=N)N)NC(=O)[C@H](CCC(N)=O)NC(=O)[C@H](CC(C)C)NC(=O)[C@H](CC(N)=O)NC(=O)[C@H](Cc2c[nH]c3ccccc23)NC(=O)[C@@H]2CCCN2C(=O)[C@H](CC(C)C)NC(=O)[C@H](CCCNC(=N)N)NC(=O)[C@@H](NC(C)=O)CSSC[C@@H](C(N)=O)NC(=O)[C@@H]2CCCN2C(=O)[C@@H](CC(C)C)NC(=O)CNC1=O
What is called IC50 is the concentration that gives 50% inhibition. Low values mean greater potency in that assay, high ones weaker potency in that assay. Regarding B1, the half-maximal inhibitory concentration (IC50) was more than 50 µM.

B2: Compound 102 (peptide)
peptide: Ac-CRLPWNLQ[dR]IGLPC-NH2
modifications: disulfide 1-14
SMILES: CC[C@H](C)[C@@H]1NC(=O)[C@@H](CCCNC(=N)N)NC(=O)[C@H](CCC(N)=O)NC(=O)[C@H](CC(C)C)NC(=O)[C@H](CC(N)=O)NC(=O)[C@H](Cc2c[nH]c3ccccc23)NC(=O)[C@@H]2CCCN2C(=O)[C@H](CC(C)C)NC(=O)[C@H](CCCNC(=N)N)NC(=O)[C@@H](NC(C)=O)CSSC[C@@H](C(N)=O)NC(=O)[C@@H]2CCCN2C(=O)[C@H](CC(C)C)NC(=O)CNC1=O
As for B2, the IC50 was more than 50 µM.

B3: Compound 73 (peptide)
peptide: Ac-CRLPWNLARIGLPC-NH2
modifications: disulfide 1-14
SMILES: CC[C@H](C)[C@@H]1NC(=O)[C@H](CCCNC(=N)N)NC(=O)[C@H](C)NC(=O)[C@H](CC(C)C)NC(=O)[C@H](CC(N)=O)NC(=O)[C@H](Cc2c[nH]c3ccccc23)NC(=O)[C@@H]2CCCN2C(=O)[C@H](CC(C)C)NC(=O)[C@H](CCCNC(=N)N)NC(=O)[C@@H](NC(C)=O)CSSC[C@@H](C(N)=O)NC(=O)[C@@H]2CCCN2C(=O)[C@H](CC(C)C)NC(=O)CNC1=O
As for B3, the IC50 is more than 50 µM.

B4: Compound 79 (peptide)
peptide: Ac-CALPWNLQRIGLPC-NH2
modifications: disulfide 1-14
SMILES: CC[C@H](C)[C@@H]1NC(=O)[C@H](CCCNC(=N)N)NC(=O)[C@H](CCC(N)=O)NC(=O)[C@H](CC(C)C)NC(=O)[C@H](CC(N)=O)NC(=O)[C@H](Cc2c[nH]c3ccccc23)NC(=O)[C@@H]2CCCN2C(=O)[C@H](CC(C)C)NC(=O)[C@H](C)NC(=O)[C@@H](NC(C)=O)CSSC[C@@H](C(N)=O)NC(=O)[C@@H]2CCCN2C(=O)[C@H](CC(C)C)NC(=O)CNC1=O
In the case of B4, the IC50 was more than 50 µM.

B5: Compound 75 (peptide)
peptide: Ac-CRLPWALQRIGLPC-NH2
modifications: disulfide 1-14
SMILES: CC[C@H](C)[C@@H]1NC(=O)[C@H](CCCNC(=N)N)NC(=O)[C@H](CCC(N)=O)NC(=O)[C@H](CC(C)C)NC(=O)[C@H](C)NC(=O)[C@H](Cc2c[nH]c3ccccc23)NC(=O)[C@@H]2CCCN2C(=O)[C@H](CC(C)C)NC(=O)[C@H](CCCNC(=N)N)NC(=O)[C@@H](NC(C)=O)CSSC[C@@H](C(N)=O)NC(=O)[C@@H]2CCCN2C(=O)[C@H](CC(C)C)NC(=O)CNC1=O
As for B5, the concentration for half-maximal inhibition (IC50) is more than 50 µM.

B6: Compound 78 (peptide)
peptide: Ac-CRAPWNLQRIGLPC-NH2
modifications: disulfide 1-14
SMILES: CC[C@H](C)[C@@H]1NC(=O)[C@H](CCCNC(=N)N)NC(=O)[C@H](CCC(N)=O)NC(=O)[C@H](CC(C)C)NC(=O)[C@H](CC(N)=O)NC(=O)[C@H](Cc2c[nH]c3ccccc23)NC(=O)[C@@H]2CCCN2C(=O)[C@H](C)NC(=O)[C@H](CCCNC(=N)N)NC(=O)[C@@H](NC(C)=O)CSSC[C@@H](C(N)=O)NC(=O)[C@@H]2CCCN2C(=O)[C@H](CC(C)C)NC(=O)CNC1=O
Consider B6, for which the IC50 was more than 50 µM.

B7: Compound 77 (peptide)
peptide: Ac-CRLAWNLQRIGLPC-NH2
modifications: disulfide 1-14
SMILES: CC[C@H](C)[C@@H]1NC(=O)[C@H](CCCNC(=N)N)NC(=O)[C@H](CCC(N)=O)NC(=O)[C@H](CC(C)C)NC(=O)[C@H](CC(N)=O)NC(=O)[C@H](Cc2c[nH]c3ccccc23)NC(=O)[C@H](C)NC(=O)[C@H](CC(C)C)NC(=O)[C@H](CCCNC(=N)N)NC(=O)[C@@H](NC(C)=O)CSSC[C@@H](C(N)=O)NC(=O)[C@@H]2CCCN2C(=O)[C@H](CC(C)C)NC(=O)CNC1=O
As for B7, the IC50 is more than 50 µM.

B8: Compound 76 (peptide)
peptide: Ac-CRLPANLQRIGLPC-NH2
modifications: disulfide 1-14
SMILES: CC[C@H](C)[C@@H]1NC(=O)[C@H](CCCNC(=N)N)NC(=O)[C@H](CCC(N)=O)NC(=O)[C@H](CC(C)C)NC(=O)[C@H](CC(N)=O)NC(=O)[C@H](C)NC(=O)[C@@H]2CCCN2C(=O)[C@H](CC(C)C)NC(=O)[C@H](CCCNC(=N)N)NC(=O)[C@@H](NC(C)=O)CSSC[C@@H](C(N)=O)NC(=O)[C@@H]2CCCN2C(=O)[C@H](CC(C)C)NC(=O)CNC1=O
B8 came in with an IC50 of more than 50 µM.

B9: Compound 81 (peptide)
peptide: Ac-CRLPWNLQRIGGGC-NH2
modifications: disulfide 1-14
SMILES: CC[C@H](C)[C@@H]1NC(=O)[C@H](CCCNC(=N)N)NC(=O)[C@H](CCC(N)=O)NC(=O)[C@H](CC(C)C)NC(=O)[C@H](CC(N)=O)NC(=O)[C@H](Cc2c[nH]c3ccccc23)NC(=O)[C@@H]2CCCN2C(=O)[C@H](CC(C)C)NC(=O)[C@H](CCCNC(=N)N)NC(=O)[C@@H](NC(C)=O)CSSC[C@@H](C(N)=O)NC(=O)CNC(=O)CNC(=O)CNC1=O
B9: the IC50 was more than 50 µM.

B10: Compound 80 (peptide)
peptide: Ac-CRLPWNLQRIGLGC-NH2
modifications: disulfide 1-14
SMILES: CC[C@H](C)[C@@H]1NC(=O)[C@H](CCCNC(=N)N)NC(=O)[C@H](CCC(N)=O)NC(=O)[C@H](CC(C)C)NC(=O)[C@H](CC(N)=O)NC(=O)[C@H](Cc2c[nH]c3ccccc23)NC(=O)[C@@H]2CCCN2C(=O)[C@H](CC(C)C)NC(=O)[C@H](CCCNC(=N)N)NC(=O)[C@@H](NC(C)=O)CSSC[C@@H](C(N)=O)NC(=O)CNC(=O)[C@H](CC(C)C)NC(=O)CNC1=O
B10 showed an IC50 of more than 50 µM.

B11: Compound 74 (peptide)
peptide: Ac-CRLPWNAQRIGLPC-NH2
modifications: disulfide 1-14
SMILES: CC[C@H](C)[C@@H]1NC(=O)[C@H](CCCNC(=N)N)NC(=O)[C@H](CCC(N)=O)NC(=O)[C@H](C)NC(=O)[C@H](CC(N)=O)NC(=O)[C@H](Cc2c[nH]c3ccccc23)NC(=O)[C@@H]2CCCN2C(=O)[C@H](CC(C)C)NC(=O)[C@H](CCCNC(=N)N)NC(=O)[C@@H](NC(C)=O)CSSC[C@@H](C(N)=O)NC(=O)[C@@H]2CCCN2C(=O)[C@H](CC(C)C)NC(=O)CNC1=O
Regarding B11, the IC50 was more than 50 µM.

B12: Compound 101 (peptide)
peptide: Ac-CRLPWNLQR[dI]GLPC-NH2
modifications: disulfide 1-14
SMILES: CC[C@@H](C)[C@H]1NC(=O)[C@H](CCCNC(=N)N)NC(=O)[C@H](CCC(N)=O)NC(=O)[C@H](CC(C)C)NC(=O)[C@H](CC(N)=O)NC(=O)[C@H](Cc2c[nH]c3ccccc23)NC(=O)[C@@H]2CCCN2C(=O)[C@H](CC(C)C)NC(=O)[C@H](CCCNC(=N)N)NC(=O)[C@@H](NC(C)=O)CSSC[C@@H](C(N)=O)NC(=O)[C@@H]2CCCN2C(=O)[C@H](CC(C)C)NC(=O)CNC1=O
The molecule B12 displayed an IC50 of more than 50 µM.

B13: Compound 103 (peptide)
peptide: Ac-CRLPWNL[dQ]RIGLPC-NH2
modifications: disulfide 1-14
SMILES: CC[C@H](C)[C@@H]1NC(=O)[C@H](CCCNC(=N)N)NC(=O)[C@@H](CCC(N)=O)NC(=O)[C@H](CC(C)C)NC(=O)[C@H](CC(N)=O)NC(=O)[C@H](Cc2c[nH]c3ccccc23)NC(=O)[C@@H]2CCCN2C(=O)[C@H](CC(C)C)NC(=O)[C@H](CCCNC(=N)N)NC(=O)[C@@H](NC(C)=O)CSSC[C@@H](C(N)=O)NC(=O)[C@@H]2CCCN2C(=O)[C@H](CC(C)C)NC(=O)CNC1=O
notes: also called Ac-CRLPWNLqRIGLPC-NH2
For B13, the IC50 was more than 50 µM.

B14: Compound 99 (peptide)
peptide: Ac-CRLPWNLQRIGL[dP]C-NH2
modifications: disulfide 1-14
SMILES: CC[C@H](C)[C@@H]1NC(=O)[C@H](CCCNC(=N)N)NC(=O)[C@H](CCC(N)=O)NC(=O)[C@H](CC(C)C)NC(=O)[C@H](CC(N)=O)NC(=O)[C@H](Cc2c[nH]c3ccccc23)NC(=O)[C@@H]2CCCN2C(=O)[C@H](CC(C)C)NC(=O)[C@H](CCCNC(=N)N)NC(=O)[C@@H](NC(C)=O)CSSC[C@@H](C(N)=O)NC(=O)[C@H]2CCCN2C(=O)[C@H](CC(C)C)NC(=O)CNC1=O
On to B14, for which the IC50 is more than 50 µM.

B15: Compound 104 (peptide)
peptide: Ac-CRLPWN[dL]QRIGLPC-NH2
modifications: disulfide 1-14
SMILES: CC[C@H](C)[C@@H]1NC(=O)[C@H](CCCNC(=N)N)NC(=O)[C@H](CCC(N)=O)NC(=O)[C@@H](CC(C)C)NC(=O)[C@H](CC(N)=O)NC(=O)[C@H](Cc2c[nH]c3ccccc23)NC(=O)[C@@H]2CCCN2C(=O)[C@H](CC(C)C)NC(=O)[C@H](CCCNC(=N)N)NC(=O)[C@@H](NC(C)=O)CSSC[C@@H](C(N)=O)NC(=O)[C@@H]2CCCN2C(=O)[C@H](CC(C)C)NC(=O)CNC1=O
notes: also called Ac-CRLPWNlQRIGLPC-NH2
Molecule B15 had an IC50 of more than 50 µM.

B16: Compound 105 (peptide)
peptide: Ac-CRLPW[dN]LQRIGLPC-NH2
modifications: disulfide 1-14
SMILES: CC[C@H](C)[C@@H]1NC(=O)[C@H](CCCNC(=N)N)NC(=O)[C@H](CCC(N)=O)NC(=O)[C@H](CC(C)C)NC(=O)[C@@H](CC(N)=O)NC(=O)[C@H](Cc2c[nH]c3ccccc23)NC(=O)[C@@H]2CCCN2C(=O)[C@H](CC(C)C)NC(=O)[C@H](CCCNC(=N)N)NC(=O)[C@@H](NC(C)=O)CSSC[C@@H](C(N)=O)NC(=O)[C@@H]2CCCN2C(=O)[C@H](CC(C)C)NC(=O)CNC1=O
Molecule B16 came in with a half-inhibitory concentration (IC50) of more than 50 µM.

Source of the values: patent US20190177366A1 (published 2019).
